We go through nine molecules from patent US20100022445A1 (BAXALTA, published 2010).

*1 amine or outer side, *2 acyl side, *3 side chain or, on linkers, in order; H or OH if unused. Where no end group is shown, it is not given here. [ ]: non-standard residue; d: D form. NH(CH2)3(OCH2CH2)2O(CH2)3NH = C(CN[*:1])COCCOCCOCCCN[*:2]

One test addresses HERG channel (UniProt Q12809 1-1159, limits assumed). Description: cell-based or functional assay.
The next test concerns the target mouse plasma. The test is described as follows: equilibrium dialysis (HTD-96, 12-14 kD cut-off), 5 µM A01 in undiluted mouse plasma, 6 h at 37 °C, LC/MS/MS. (In general: Equilibrium dialysis compares concentrations on both sides of a semipermeable membrane.)
For a further test, the target named is human plasma. The test is described as follows: equilibrium dialysis (HTD-96, 12-14 kD cut-off), 5 µM A01 in undiluted human plasma, 6 h at 37 °C, LC/MS/MS.

Sequence of HERG channel (Q12809 whole entry): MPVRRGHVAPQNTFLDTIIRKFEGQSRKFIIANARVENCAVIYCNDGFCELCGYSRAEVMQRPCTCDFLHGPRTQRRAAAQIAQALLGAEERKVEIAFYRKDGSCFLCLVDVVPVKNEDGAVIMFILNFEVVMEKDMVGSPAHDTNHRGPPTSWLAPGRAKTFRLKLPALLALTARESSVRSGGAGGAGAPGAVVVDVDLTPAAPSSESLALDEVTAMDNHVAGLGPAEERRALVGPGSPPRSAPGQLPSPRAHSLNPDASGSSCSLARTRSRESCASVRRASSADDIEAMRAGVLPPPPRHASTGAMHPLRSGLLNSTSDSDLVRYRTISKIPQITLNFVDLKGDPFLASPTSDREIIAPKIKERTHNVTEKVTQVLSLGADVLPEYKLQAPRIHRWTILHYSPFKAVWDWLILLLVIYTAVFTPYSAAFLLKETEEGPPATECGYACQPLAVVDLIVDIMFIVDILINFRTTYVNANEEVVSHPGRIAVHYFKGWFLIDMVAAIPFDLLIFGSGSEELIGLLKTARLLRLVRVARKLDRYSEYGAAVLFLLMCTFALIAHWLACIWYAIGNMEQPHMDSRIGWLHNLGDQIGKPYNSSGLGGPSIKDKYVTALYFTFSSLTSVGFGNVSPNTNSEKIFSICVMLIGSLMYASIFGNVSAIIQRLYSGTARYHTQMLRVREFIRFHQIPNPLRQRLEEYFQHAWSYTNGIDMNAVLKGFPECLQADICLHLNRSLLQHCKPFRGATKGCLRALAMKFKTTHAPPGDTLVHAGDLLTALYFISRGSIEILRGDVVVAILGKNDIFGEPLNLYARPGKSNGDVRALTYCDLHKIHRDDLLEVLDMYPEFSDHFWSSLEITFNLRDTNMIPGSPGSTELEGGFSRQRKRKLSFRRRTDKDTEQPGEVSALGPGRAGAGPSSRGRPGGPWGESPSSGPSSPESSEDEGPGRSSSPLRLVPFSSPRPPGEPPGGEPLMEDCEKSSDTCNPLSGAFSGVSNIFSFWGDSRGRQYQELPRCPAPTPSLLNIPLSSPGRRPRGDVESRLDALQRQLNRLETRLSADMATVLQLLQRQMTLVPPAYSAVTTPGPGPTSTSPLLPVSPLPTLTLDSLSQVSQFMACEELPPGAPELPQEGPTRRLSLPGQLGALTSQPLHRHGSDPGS

For PEG5000-RMKFDVWDLYFEIVW-NH2 [A16 (PEG5000-RMKFDVWDLYFEIVW-NH2)], the “HERG inhibition patch-clamp (% Inhibition of Tail Current at 1 µM)” value with HERG channel is 22.2%.

As to Ac-PMKFDVWDLYFEIVW-NH2 [A02 (Ac-PMKFDVWDLYFEIVW-NH2)], the “HERG inhibition Rb+ efflux (% Inhibition at 10 µM)” value with HERG channel is -3.3%.

With Ac-WDLYFEIVW-NH2 [A05 (Ac-WDLYFEIVW-NH2)], the “HERG inhibition patch-clamp (% Inhibition of Tail Current at 1 µM)” value in the test with HERG channel was 14.5%.

On to Ac-RMKFDVWDLYFEIVW-NH2 [A01 (Ac-RMKFDVWDLYFEIVW-NH2)], for which the “HERG inhibition patch-clamp (% Inhibition of Tail Current at 1 µM)” value with HERG channel was 16.5%.

ERMEFDVWDLYFEIVW-NH2 [A09 (ERMEFDVWDLYFEIVW-NH2)]: the “HERG inhibition Rb+ efflux (% Inhibition at 10 µM)” value with HERG channel is -1.6%.

B1: B03 (Ac-cimfwydeye-NH2) (peptide)
peptide: Ac-[dC][dI][dM][dF][dW][dY][dD][dE][dY][dE]-NH2
SMILES: CC[C@@H](C)[C@@H](NC(=O)[C@@H](CS)NC(C)=O)C(=O)N[C@H](CCSC)C(=O)N[C@H](Cc1ccccc1)C(=O)N[C@H](Cc1c[nH]c2ccccc12)C(=O)N[C@H](Cc1ccc(O)cc1)C(=O)N[C@H](CC(=O)O)C(=O)N[C@H](CCC(=O)O)C(=O)N[C@H](Cc1ccc(O)cc1)C(=O)N[C@H](CCC(=O)O)C(N)=O
For B1, in the test with HERG channel, the “HERG inhibition Rb+ efflux (% Inhibition at 10 µM)” value was -2.1% and the “HERG inhibition patch-clamp (% Inhibition of Tail Current at 1 µM)” value came to 84.5%.

As to Ac-WDLYFEIVW[NH(CH2)3(OCH2CH2)2O(CH2)3NH]E [A07 (Ac-WDLYFEIVW-ttds-E)], the “HERG inhibition Rb+ efflux (% Inhibition at 10 µM)” value with HERG channel is -3.4%.

For Ac-WDLYFEIVWE [A06 (Ac-WDLYFEIVWE)], the “HERG inhibition Rb+ efflux (% Inhibition at 10 µM)” value with HERG channel is -6.4%.

In the case of Ac-RMKFDVWDLYFEIVW-NH2 [A01 (Ac-…-NH2)], the results for the Average % Bound with mouse plasma and in the test with human plasma were above 99.2% and above 98.3%, respectively.
